# In PMC6395645:
# Experiments:
# soluble type-I collagen [1] = target: soluble type-I collagen (UniProt P02454); assay: ELISA; collagen-binding ELISA; soluble type-I collagen immobilised on plates, salivary gland homogenates of 20 TG mosquitoes (hold mDsRed-8H7scFv) applied 1 h at room temperature; quantified against Trx-AAPPex1-4
# soluble type-I collagen [2] = target: soluble type-I collagen (UniProt P02454); assay: ELISA; collagen-binding ELISA; soluble type-I collagen immobilised on plates, salivary gland homogenates of 20 WT mosquitoes applied 1 h at room temperature; quantified against Trx-AAPPex1-4
# soluble type-I collagen [3] = target: soluble type-I collagen (UniProt P02454); assay: ELISA; collagen-binding ELISA; soluble type-I collagen immobilised on plates, saliva of 20 TG mosquitoes (holds mDsRed-8H7scFv) applied 1 h at room temperature; quantified against Trx-AAPPex1-4
# soluble type-I collagen [4] = target: soluble type-I collagen (UniProt P02454); assay: ELISA; collagen-binding ELISA; soluble type-I collagen immobilised on plates (7.5 ug/ml, 100 ul/well), saliva of 20 WT mosquitoes applied 1 h at room temperature; quantified against Trx-AAPPex1-4
# Chain of soluble type-I collagen (P02454 152-1207, chain 1 of 2): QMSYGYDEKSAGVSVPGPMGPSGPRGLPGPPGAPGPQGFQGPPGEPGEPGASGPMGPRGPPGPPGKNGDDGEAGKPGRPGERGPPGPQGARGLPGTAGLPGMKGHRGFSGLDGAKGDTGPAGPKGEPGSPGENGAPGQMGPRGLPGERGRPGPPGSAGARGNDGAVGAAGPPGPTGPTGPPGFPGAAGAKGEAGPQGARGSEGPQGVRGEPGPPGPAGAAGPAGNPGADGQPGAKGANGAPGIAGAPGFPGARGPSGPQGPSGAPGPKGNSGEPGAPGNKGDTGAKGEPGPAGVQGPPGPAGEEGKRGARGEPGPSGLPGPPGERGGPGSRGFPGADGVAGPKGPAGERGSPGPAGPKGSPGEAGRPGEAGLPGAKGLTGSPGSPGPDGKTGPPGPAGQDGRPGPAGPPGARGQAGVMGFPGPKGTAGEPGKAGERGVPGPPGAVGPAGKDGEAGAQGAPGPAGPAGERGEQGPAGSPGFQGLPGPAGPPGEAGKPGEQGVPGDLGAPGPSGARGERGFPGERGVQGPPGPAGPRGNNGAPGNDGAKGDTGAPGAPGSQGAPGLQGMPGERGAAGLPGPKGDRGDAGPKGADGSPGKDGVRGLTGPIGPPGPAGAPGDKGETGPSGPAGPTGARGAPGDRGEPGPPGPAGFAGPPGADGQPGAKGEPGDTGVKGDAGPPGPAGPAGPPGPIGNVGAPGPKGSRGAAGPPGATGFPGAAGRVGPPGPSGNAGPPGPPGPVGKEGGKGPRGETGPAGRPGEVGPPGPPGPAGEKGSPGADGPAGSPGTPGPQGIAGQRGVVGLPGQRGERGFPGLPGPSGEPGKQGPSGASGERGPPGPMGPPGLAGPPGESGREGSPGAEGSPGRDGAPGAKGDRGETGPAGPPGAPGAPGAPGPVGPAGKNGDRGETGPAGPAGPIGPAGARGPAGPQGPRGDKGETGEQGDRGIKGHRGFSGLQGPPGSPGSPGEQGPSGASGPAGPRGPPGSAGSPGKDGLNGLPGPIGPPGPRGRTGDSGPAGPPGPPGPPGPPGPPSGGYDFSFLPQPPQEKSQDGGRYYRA
# Chain of soluble type-I collagen (P02466 86-1125, chain 2 of 2, further chain): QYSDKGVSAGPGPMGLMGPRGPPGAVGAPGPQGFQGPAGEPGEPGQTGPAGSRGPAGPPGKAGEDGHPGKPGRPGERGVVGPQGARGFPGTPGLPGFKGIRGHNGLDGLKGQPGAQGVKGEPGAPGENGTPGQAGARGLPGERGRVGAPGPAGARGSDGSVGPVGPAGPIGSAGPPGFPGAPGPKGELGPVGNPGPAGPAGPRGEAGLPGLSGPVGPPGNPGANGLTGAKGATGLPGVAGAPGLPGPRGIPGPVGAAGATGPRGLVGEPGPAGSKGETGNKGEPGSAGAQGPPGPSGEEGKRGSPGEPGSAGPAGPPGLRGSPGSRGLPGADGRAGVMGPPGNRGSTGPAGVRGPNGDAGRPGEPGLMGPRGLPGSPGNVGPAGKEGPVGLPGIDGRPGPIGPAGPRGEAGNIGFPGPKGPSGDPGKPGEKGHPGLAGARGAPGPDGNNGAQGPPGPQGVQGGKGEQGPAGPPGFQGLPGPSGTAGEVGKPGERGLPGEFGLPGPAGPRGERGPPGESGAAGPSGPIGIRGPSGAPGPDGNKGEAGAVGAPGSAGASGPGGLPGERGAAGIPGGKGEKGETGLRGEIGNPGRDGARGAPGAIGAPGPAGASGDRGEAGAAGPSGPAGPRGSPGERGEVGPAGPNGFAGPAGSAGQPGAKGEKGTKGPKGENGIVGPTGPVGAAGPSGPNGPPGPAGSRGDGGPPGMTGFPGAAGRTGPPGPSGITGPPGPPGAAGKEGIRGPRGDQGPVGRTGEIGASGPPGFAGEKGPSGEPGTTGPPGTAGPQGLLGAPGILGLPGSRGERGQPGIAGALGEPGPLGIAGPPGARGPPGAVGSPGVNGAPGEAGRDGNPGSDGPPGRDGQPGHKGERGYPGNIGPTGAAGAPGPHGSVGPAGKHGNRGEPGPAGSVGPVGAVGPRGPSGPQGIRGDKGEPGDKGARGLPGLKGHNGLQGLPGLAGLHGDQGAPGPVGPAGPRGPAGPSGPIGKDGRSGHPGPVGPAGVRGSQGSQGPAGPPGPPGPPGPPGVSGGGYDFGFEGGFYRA
substance,measurement,setting,value
Anopheline antiplatelet protein (AAPP) (from UniProt Q7YT37 20-269) (natural protein),"amount of AAPP capable of binding to collagen, with mDsRed-8H7scFv present (salivary glands of 20 TG-03 mosquitoes)",soluble type-I collagen [1],11.4 ng
same,"amount of AAPP capable of binding to collagen, with mDsRed-8H7scFv present (salivary glands of 20 TG-30 mosquitoes)",soluble type-I collagen [1],9.95 ng
same,"amount of AAPP capable of binding to collagen, with mDsRed-8H7scFv present (salivary glands of 20 TG-37 mosquitoes)",soluble type-I collagen [1],10.5 ng
same,amount of AAPP capable of binding to collagen (salivary glands of 20 WT mosquitoes),soluble type-I collagen [2],233 ng
same,"amount of AAPP capable of binding to collagen, with mDsRed-8H7scFv present (saliva of 20 mosquitoes of each TG line)",soluble type-I collagen [3],< 0.069 ng
same,amount of AAPP capable of binding to collagen (saliva of 20 WT mosquitoes),soluble type-I collagen [4],28.4 ng
